B1: human glucokinase (GCK) (Homo sapiens) (protein)
chain: VEQILAEFQLQEEDLKKVMRRMQKEMDRGLRLETHEEASVKMLPTYVRSTPEGSEVGDFLSLDLGGTNFRVMLVKVGEGEEGQWSVKTKHQMYSIPEDAMTGTAEMLFDYISECISDFLDKHQMKHKKLPLGFTFSFPVRHEDIDKGILLNWTKGFKASGAEGNNVVGLLRDAIKRRGDFEMDVVAMVNDTVATMISCYYEDHQCEVGMIVGTGCNACYMEEMQNVELVEGDEGRMCVNTEWGAFGDSGELDEFLLEYDRLVDESSANPGQQLYEKLIGGKYMGELVRLVLLRLVDENLLFHGEASEQLRTRGAFETRFVSQVESDTGDRKQIYNILSTLGLRPSTTDCDIVRRACESVSTRAAHMCSAGLAGVINRMRESRSEDVMRITVGVDGSVYKLHPSFKERFHASVRRLTPSCEITFIESEEGSGRGAALVSAVACKKACMLGQ
notes: V16 to Q465, N-terminal 6xHis tag, expressed in E. coli
B2: CD39L2 (ENTPD6) (Mus musculus) (protein)
chain: MRKIPNHGTLRMTKVAYPLGLCVGLFIYVAYIKWHRASAAQAFFTIAGAASGARWTQQAFSSPGSAARGHEVFYGIMFDAGSTGTRIHVFQFARPPGETPTLTHETFKALKPGLSAYADDVEKSAQGIQELLNVAKQHIPYDFWKATPLVLKATAGLRLLPGEKAQKLLQKVKEVFKASPFLVGDDCVSIMNGTDEGVSAWITVNFLTGSLKTPGSSSVGMLDLGGGSTQITFLPRVEGTLQASPPGHLTALQMFNRTYKLYSYSYLGLGLMSARLAILGGVEGKPAENDKELVSPCLSPRFRGEWEHAEVTYRISGQKAVGLYELCASRVSEVLRNKVHRTEEAQHVDFYAFSYYYDLAASFGLIDAEKGGSLVVGDFEIAAKYVCRTLETQPPSSPFACMDLTYISLLLHEFGFPGDKVLKLARKIDNVETSWALGAIFHYIDSLKRQKVPAL
notes: recombinant, R&D Systems

Assays:
purified protein = substrate: Nc1ncnc2c1ncn2[C@@H]1O[C@H](COP(=O)(O)OP(=O)(O)OP(=O)(O)O)[C@@H](O)[C@H]1O; assay: purified protein; format: biochemical, Homo sapiens; conditions: 20 mM glucose, 10 mM MgCl2, 10 mM CaCl2, 150 mM NaCl, 25 mM Tris pH 7.5, room temperature
[1] = substrate: Nc1ncnc2c1ncn2[C@@H]1O[C@H](COP(=O)(O)OP(=O)(O)O)[C@@H](O)[C@H]1O; assay: malachite green phosphate release assay; format: biochemical, Mus musculus; conditions: 25 mM Tris, 150 mM NaCl, 10 mM MgCl2, 10 mM CaCl2, pH 7.5, room temperature
Source text: (§1) malachite green phosphate release assay on CD39L2 (ENTPD6)

[2] = substrate: Nc1ncnc2c1ncn2[C@@H]1O[C@H](COP(=O)(O)OP(=O)(O)OP(=O)(O)O)[C@@H](O)[C@H]1O; assay: malachite green phosphate release assay; format: biochemical, Mus musculus; conditions: 25 mM Tris, 150 mM NaCl, 10 mM MgCl2, 10 mM CaCl2, pH 7.5, room temperature
Source text: as §1

Protein | Km (purified protein) [mM] | Km [1] [mM] | Vmax [1] [µmol/min/mg] | kcat [1] [s⁻¹] | kcat/Km [1] [M⁻¹ s⁻¹] | Km [2] [mM] | Vmax [2] [µmol/min/mg] | kcat [2] [s⁻¹] | kcat/Km [2] [M⁻¹ s⁻¹]
B1 | 3.55 | – | – | – | – | – | – | – | –
B2 | – | 1.05 | 49.1 | 38.5 | 36600 | 1.14 | 0.928 | 0.617 | 727

Source: publication PMC3154929, “Phosphatase-Coupled Universal Kinase Assay and Kinetics for First-Order-Rate Coupling Reaction” (PLoS ONE, 2011)
